Assay [1] addresses full-length KvAP-T225C (Aeropyrum pernix). Nature of the assay: cross-linking.
Assay [2] addresses T1, KvAP channel from Aeropyrum pernix, wild type (Aeropyrum pernix, UniProt Q9YDF8 14-295).
T1 sequence (looked up): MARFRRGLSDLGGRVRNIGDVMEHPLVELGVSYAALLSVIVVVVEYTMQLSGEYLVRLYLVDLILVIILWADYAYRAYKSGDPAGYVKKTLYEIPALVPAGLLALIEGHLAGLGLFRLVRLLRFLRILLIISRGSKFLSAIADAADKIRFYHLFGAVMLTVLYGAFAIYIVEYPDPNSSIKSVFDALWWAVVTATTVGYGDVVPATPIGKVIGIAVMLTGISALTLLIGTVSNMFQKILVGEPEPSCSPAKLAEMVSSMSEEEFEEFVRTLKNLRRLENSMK
Nature of the assay: electrophysiology.

Consider “full-length KvAP-T225C (natural protein)”, for which the stoichiometry N in assay [1] was 4.

For the molecule GNHAEIYSNHHMMSHVGGGR [synthetic φD peptide], the Kd in assay [2] amounted to 21.2 ± 3.5 µM.

Broadly, the stoichiometry N is the number of molecules, sites or subunits per partner or assembly. As a reminder, the Kd is the constant that tells how readily two partners part at equilibrium. Read a high Kd as weaker binding.
